Substrate in the series: C[C@@H]1O[C@@H](Oc2ccc([N+](=O)[O-])cc2)[C@H](O)[C@H](O)[C@H]1O
As to the kind of experiment: purified protein. Particulars: pH 5.0, 37 °C (b12; Experimental b31 prints Tris 200 mM, pH 6.0).

The results in this text go back to publication PMC6649072.

B1: DtRha (Dictyoglomus thermophilum H-6-12) (protein)
chain: MKSSNIYSPFDLKCEFTTNPLGVDKKNPIFSWKLRHLEKNEKQTAYQVIVSSSLETINDNIGDVWDTGKVLSSEQVIKYEGKELEPCKVYFWKVRWWDSKDQESPFSVVNTFETGLMNEENWKAKWITKKEHKYEVYSPDGAPFGLNYTIAYAPMFRKSFSISKKIKRARVYIAGLGLYELYINGERIGDRVLDPGQTDYKKRVLYTVYDVSKNIRDGKNAIGVILGNGRYVKEYGYDFPKLIIQVLVEYEDDSIEWIVSDESWKTTYGPITLNSLYHGEIYDGRKEIKGWNLPDFDDSTWENAILAEPPGGKLYSEIYPPIRITKTIKPIKMWSPEPGTYVYDFGQNYTGWIKIKVRTNESGKEIRIRHAELTYEDGTLNYSTNRTALATDVYITKGEGYEEYEPRFTYHGFRYVEILGYPGVPTLEDIEGKVVHTAVESNGEFICSNELINKIHHNIIWGQLSNLMSIPTDCPQRDERMGWMGDAQLSAEEAIFNFDMIGFYRKYLNDIRDAQKENGSLSDVIPPYWSIYPGDPAWSTAYITIAWYLYQYYGDKYVLEEHYEGFKKYVEFLKKLAPDYIVSFYKYGDWCQPGTVRPKDNSGELTSTFYFYHDVITLSKIAKLLGKEADYKYYSELADKIKSAFNKKFLKEKAYASIPTELSEENVKALLEKYPEDIKDFLRQQFTILSSLGMFTSQTLNTLPLYLNLVPEDKVQDVLKTLLEDIIIRHDYHLDTGIVATRYIFDVLTSYGYDEVAYKIVNQKTYPSFGYMIEEGATTLWERWEKLTSTGMNSHNHIMFGSVDAWFYRVIAGVRVGEPGWNKIIFEPHPVGDLKYAKARLNTIKGEVEINWQKTENIFSMRISVPVNSEGEVHVPKLFERFVVKEGDNIIYEKKGDLEENEKYIVIRVGSGSYNFYMEKI
Consider B1, for which the Km came out at 54.00 ± 0.03 µM and the catalytic constant (kcat) was 0.17 ± 0.01 s⁻¹.

By Km is commonly meant the substrate concentration at which the rate is half of its maximum. A word on the kcat: it is the maximal rate divided by the concentration of active sites.
